Assay results reported in publication PMC7078487.

Target: soluble FixL (FixL_(118–495), missing the transmembrane domain) (Caulobacter crescentus)

accumulation of autophosphorylated FixL ([γ-32P]ATP, 30-minute time course; FixL 5 μM, FixJ(D55A) 20 μM, FixT 80 μM): 3 fold
Substance: Caulobacter crescentus FixT (natural protein)
